Molecular target: chaperone receptors within native chloroplast membranes (dynamic TIRE)
Experiment: total internal reflection ellipsometry (TIRE); dynamic: pea chloroplast membranes on Cr/Au slides; time course of Δ at 700 nm over 15 min at chaperone concentrations from 1 to 10 µg/ml in 100 mM Tris-HCl pH 8.0; 1/τ against concentration fitted to a line, KA = ka/kd

Chain of Hsp70-1 (At5g02500), full length (P22953 whole entry): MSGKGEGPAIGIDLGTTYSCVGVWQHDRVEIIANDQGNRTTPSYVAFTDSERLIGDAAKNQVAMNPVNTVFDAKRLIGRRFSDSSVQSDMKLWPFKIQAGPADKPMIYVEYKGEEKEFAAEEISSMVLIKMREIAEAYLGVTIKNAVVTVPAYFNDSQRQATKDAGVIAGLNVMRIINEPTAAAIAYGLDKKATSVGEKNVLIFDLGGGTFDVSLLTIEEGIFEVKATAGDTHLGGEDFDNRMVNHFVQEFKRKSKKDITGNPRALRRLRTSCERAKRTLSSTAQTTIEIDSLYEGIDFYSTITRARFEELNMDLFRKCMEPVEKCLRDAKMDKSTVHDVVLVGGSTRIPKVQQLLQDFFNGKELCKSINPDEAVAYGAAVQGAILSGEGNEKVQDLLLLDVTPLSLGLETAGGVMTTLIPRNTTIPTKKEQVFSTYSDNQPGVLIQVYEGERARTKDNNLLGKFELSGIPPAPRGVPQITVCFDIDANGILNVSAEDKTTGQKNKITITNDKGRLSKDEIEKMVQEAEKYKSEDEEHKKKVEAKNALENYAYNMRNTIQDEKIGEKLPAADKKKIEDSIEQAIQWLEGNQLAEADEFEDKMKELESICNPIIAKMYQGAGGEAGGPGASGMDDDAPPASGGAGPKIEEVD
Chain of Hsp90-2 (At5g56030), full length (P55737 whole entry): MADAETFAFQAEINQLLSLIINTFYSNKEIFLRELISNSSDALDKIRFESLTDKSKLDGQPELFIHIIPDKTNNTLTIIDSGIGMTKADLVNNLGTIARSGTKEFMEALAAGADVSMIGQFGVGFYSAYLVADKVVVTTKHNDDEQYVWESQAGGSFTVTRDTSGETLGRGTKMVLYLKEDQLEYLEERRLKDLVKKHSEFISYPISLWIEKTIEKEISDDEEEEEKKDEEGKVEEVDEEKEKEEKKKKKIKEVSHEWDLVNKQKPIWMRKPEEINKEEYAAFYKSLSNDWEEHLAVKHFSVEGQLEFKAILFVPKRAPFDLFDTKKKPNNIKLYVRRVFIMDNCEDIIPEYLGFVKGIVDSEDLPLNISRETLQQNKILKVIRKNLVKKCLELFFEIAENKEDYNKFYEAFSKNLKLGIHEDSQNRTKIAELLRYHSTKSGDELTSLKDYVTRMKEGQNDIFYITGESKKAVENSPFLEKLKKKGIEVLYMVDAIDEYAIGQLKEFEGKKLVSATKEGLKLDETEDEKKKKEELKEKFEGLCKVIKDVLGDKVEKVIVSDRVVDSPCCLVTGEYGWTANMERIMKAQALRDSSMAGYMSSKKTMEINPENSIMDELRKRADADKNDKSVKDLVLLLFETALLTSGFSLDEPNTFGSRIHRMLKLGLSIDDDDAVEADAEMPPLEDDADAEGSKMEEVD

| Substance | Ka [M⁻¹] |
| --- | --- |
| Hsp90-2 (At5g56030), full length (from UniProt P55737 1-699) (natural protein) | 8.74e+06 |
| Hsp70-1 (At5g02500), full length (from UniProt P22953 1-651) (natural protein) | 9.15e+06 |
